# Data published in patent US8975259B2, “Compositions and methods for inhibiting G protein signaling” (University of Rochester, priority 2007, dated 2015).
# Legend:
# PLCβ3 = test: Gβ1γ2-dependent activation of purified PLCβ3; assay type: biochemical; settings: Table 4; read-out: PLC β3 IC50
# Procedure: (§1) Purified PLCβ2 (0.25 ng) was assayed in the presence (▴) or absence (▪) of 100 nM purified Gβ1γ2. […] Assays contained 10 ng of purified p101/p110 PI3Kγ heterodimer with or without 100 nM purified Gβ1γ2. Left panel: (▴) 100 nM Gβ1γ2 or (▪) no βγ. […] M119 or M201 and 25 nM purified GRK2 were added simultaneously to 250 nM biotinylated Gβ1γ2 (bGβ1γ2) immobilized on streptavidin agarose. GRK2 was detected with antibody to GRK2. Data are representative (mean ±SEM, except D) repeated at least three times each. […] 30 nM bGβ1γ2 was incubated with either 30 nM PLCβ2 or PLCβ3 in the presence or absence of M119 or M201 for 16 h at 4° C. before precipitation with avidin agarose and detection with PLCβ2,or Gβ antibodies. […] Same as 4E with PLCβ3.
# The ability of NSC119910 analogs to selectively modulate activation PLC-β2 and -β3 was analyzed. In this assay, PLC-β2 and PLC-β3 were purified and PLC enzymatic activity was measured in the presence or absence of purified βy and in the presence or absence of analog.
# (§2) Nevertheless, M119 and M201 were tested in in vitro reconstitution assays of Gβγ-dependent activation of PLCβ2, PLCβ3 and PI3Kγ and binding to GRK2. […] These are only two of multiple diverse compounds identified, indicating potential for multiple modes of Gβγ-dependent target modulation by these small molecules.
# Gβ1γ2 (Gβ1 mutants) [1] = molecular target: T1, Gβ1γ2 (Gβ1 mutants) (UniProt P54311+P63212, Y59A); test: Phage ELISA: binding of peptide-displaying phage to wild-type or alanine-substituted b-βγ; parameters: species or system rat; settings: Gβ1 Tyr59Ala; mean ± SD
# T1 construct: made in house; host or cells: Sf9 insect cells (baculovirus), partially purified via (His)6-Gαi1 on Ni-NTA
# Source text: (§3) Wild-type Gβ1 and Gp1 mutants were made in the baculovirus vector PDW464 which encodes a biotinylation site at a lysine upstream of the amino terminus of Gβ1 (Goubaeva, et al. (2003) supra). Mutants were generated by overlap extension PCR using standard protocols. The wild-type and mutant Gβ1 constructs consisted of a 20 amino acid biotin acceptor peptide (BAP) sequence fused in-frame with the amino-terminus of rat Gβ1 subunit. When coexpressed with biotin holoenzyme synthetase (BirA) in Sf9 cells, the Gβ1 subunit becomes covalently biotinylated in vivo at the specific lysine acceptor residue in the BAP. Using this approach, 1-2 mg protein of purified protein can be obtained per liter of Sf9 insect cells. As 45 ng of protein is used in the phage ELISA assay, a single purification is sufficient for 10,000 to 30,000 binding assays.
# (§4) Phage ELISA assays used to assess peptide binding to wild-type and mutant b-βγ were performed according to standard methods (Smrcka and Scott (2002) Methods Enzymol. 344:557-76). Briefly, 1 μg streptavidin was immobilized in the well of a […] overnight at 4° C. The wells were blocked with 100 μL of 2% bovine serum albumin (BSA) in Tris-buffered saline (TBS) for 1 hour at 4° C. followed by three washes of IX TBS/0.5% TWEEN®. Forty μL of 25 nM bGβ1γ2 in TBS/0.5% TWEEN® was added to each well and incubated at 4° C. for 1.5 hour. The wells were washed, followed by the addition of IxIO^6 to IxIO^10 phage particles and incubated at 4° C. for 3 hours. The wells were then washed six times with TBS/0.5% TWEEN® followed by addition of 40 μL of 1:5000 dilution of anti-M13 antibody (Pharmacia, Uppsala, Sweden) and incubated at room temperature for 1 hour. The wells were washed, followed by the addition of 40 μL of (2,2′-Azino-bis (3-ethylbenzthiazoline)-6-sulfonic acid (ABTS) and the colorimetric reaction was monitored at 405 nm. Nonspecific binding was subtracted for each reading.
# (§5) The nine peptides were selected to represent the different consensus groups of peptides previously identified (See Scott et al. (2001) supra; Table 15) and to compare binding characteristics within and between consensus groups. […] As disclosed herein, the binding signal obtained in the ELISA assay was correlated to a loss in affinity by comparing the results to behavior of the peptide in a solution based assay. […] For the purposes of present disclosure, any substitution that decreased the binding to less than 20% of the wild-type binding was considered to be a critical binding contact for that peptide.
# Gβ1γ2 (Gβ1 mutants) [2] = molecular target: T2, Gβ1γ2 (Gβ1 mutants) (UniProt P54311+P63212, M101A); test: as above; parameters: species or system rat; settings: Gβ1 Met101Ala; mean ± SD
# T2 construct: made in house; host or cells: Sf9 insect cells (baculovirus), partially purified via (His)6-Gαi1 on Ni-NTA
# Source text: as §3, §4, §5
# Gβ1γ2 (Gβ1 mutants) [3] = molecular target: T3, Gβ1γ2 (Gβ1 mutants) (UniProt P54311+P63212, R314A); test: as above; parameters: species or system rat; settings: Gβ1 Arg314Ala; mean ± SD
# T3 construct: made in house; host or cells: Sf9 insect cells (baculovirus), partially purified via (His)6-Gαi1 on Ni-NTA
# Source text: as §3, §4, §5
# Gβ1γ2 (Gβ1 mutants) [4] = molecular target: T4, Gβ1γ2 (Gβ1 mutants) (UniProt P54311+P63212, D186A); test: as above; parameters: species or system rat; settings: Gβ1 Asp186Ala; mean ± SD
# T4 construct: made in house; host or cells: Sf9 insect cells (baculovirus), partially purified via (His)6-Gαi1 on Ni-NTA
# Source text: as §3, §4, §5
# Gβ1γ2 (Gβ1 mutants) [5] = molecular target: T5, Gβ1γ2 (Gβ1 mutants) (UniProt P54311+P63212, H311A); test: as above; parameters: species or system rat; settings: Gβ1 His311Ala; mean ± SD
# T5 construct: made in house; host or cells: Sf9 insect cells (baculovirus), partially purified via (His)6-Gαi1 on Ni-NTA
# Source text: as §3, §4, §5
# Gβ1γ2 (Gβ1 mutants) [6] = molecular target: T6, Gβ1γ2 (Gβ1 mutants) (UniProt P54311+P63212, K57A); test: as above; parameters: species or system rat; settings: Gβ1 Lys57Ala; mean ± SD
# T6 construct: made in house; host or cells: Sf9 insect cells (baculovirus), partially purified via (His)6-Gαi1 on Ni-NTA
# Source text: as §3, §4, §5
# Gβ1γ2 (Gβ1 mutants) [7] = molecular target: T7, Gβ1γ2 (Gβ1 mutants) (UniProt P54311+P63212, W332A); test: as above; parameters: species or system rat; settings: Gβ1 Trp332Ala; mean ± SD
# T7 construct: made in house; host or cells: Sf9 insect cells (baculovirus), partially purified via (His)6-Gαi1 on Ni-NTA
# Source text: as §3, §4, §5
# Gβ1γ2 (Gβ1 mutants) [8] = molecular target: T8, Gβ1γ2 (Gβ1 mutants) (UniProt P54311+P63212, L117A); test: as above; parameters: species or system rat; settings: Gβ1 Leu117Ala; mean ± SD
# T8 construct: made in house; host or cells: Sf9 insect cells (baculovirus), partially purified via (His)6-Gαi1 on Ni-NTA
# Source text: as §3, §4, §5
# Gβ1γ2 (Gβ1 mutants) [9] = molecular target: T9, Gβ1γ2 (Gβ1 mutants) (UniProt P54311+P63212, M188A); test: as above; parameters: species or system rat; settings: Gβ1 Met188Ala; mean ± SD
# T9 construct: made in house; host or cells: Sf9 insect cells (baculovirus), partially purified via (His)6-Gαi1 on Ni-NTA
# Source text: as §3, §4, §5
# Gβ1γ2 (Gβ1 mutants) [10] = molecular target: T10, Gβ1γ2 (Gβ1 mutants) (UniProt P54311+P63212, W99A); test: as above; parameters: species or system rat; settings: Gβ1 Trp99Ala; mean ± SD
# T10 construct: made in house; host or cells: Sf9 insect cells (baculovirus), partially purified via (His)6-Gαi1 on Ni-NTA
# Source text: as §3, §4, §5
# Gβ1γ2 (Gβ1 mutants) [11] = molecular target: T11, Gβ1γ2 (Gβ1 mutants) (UniProt P54311+P63212, Y145A); test: as above; parameters: species or system rat; settings: Gβ1 Tyr145Ala; mean ± SD
# T11 construct: made in house; host or cells: Sf9 insect cells (baculovirus), partially purified via (His)6-Gαi1 on Ni-NTA
# Source text: as §3, §4, §5
# Gβ1γ2 (Gβ1 mutants) [12] = molecular target: T12, Gβ1γ2 (Gβ1 mutants) (UniProt P54311+P63212, D246S); test: as above; parameters: species or system rat; settings: Gβ1 Asp246Ser; mean ± SD
# T12 construct: made in house; host or cells: Sf9 insect cells (baculovirus), partially purified via (His)6-Gαi1 on Ni-NTA
# Source text: as §3, §4, §5
# Gβ1γ2 (Gβ1 mutants) [13] = molecular target: T13, Gβ1γ2 (Gβ1 mutants) (UniProt P54311+P63212, N230A); test: as above; parameters: species or system rat; settings: Gβ1 Asn230Ala; mean ± SD
# T13 construct: made in house; host or cells: Sf9 insect cells (baculovirus), partially purified via (His)6-Gαi1 on Ni-NTA
# Source text: as §3, §4, §5
# PI3Kγ = test: Gβ1γ2-dependent activation of purified p101/p110 PI3Kγ; assay type: biochemical; settings: Table 5; read-out: PI3Kγ IC50
# Procedure: as §1, §2
Compound,IC50 (PLCβ3),% of Wild-Type Signal (Gβ1γ2 (Gβ1 mutants) [1]),% of Wild-Type Signal (Gβ1γ2 (Gβ1 mutants) [2]),% of Wild-Type Signal (Gβ1γ2 (Gβ1 mutants) [3]),% of Wild-Type Signal (Gβ1γ2 (Gβ1 mutants) [4]),% of Wild-Type Signal (Gβ1γ2 (Gβ1 mutants) [5]),% of Wild-Type Signal (Gβ1γ2 (Gβ1 mutants) [6]),% of Wild-Type Signal (Gβ1γ2 (Gβ1 mutants) [7]),% of Wild-Type Signal (Gβ1γ2 (Gβ1 mutants) [8]),% of Wild-Type Signal (Gβ1γ2 (Gβ1 mutants) [9]),% of Wild-Type Signal (Gβ1γ2 (Gβ1 mutants) [10]),% of Wild-Type Signal (Gβ1γ2 (Gβ1 mutants) [11]),% of Wild-Type Signal (Gβ1γ2 (Gβ1 mutants) [12]),% of Wild-Type Signal (Gβ1γ2 (Gβ1 mutants) [13]),IC50 (PI3Kγ)
Nc1ccc(Nc2cc(S(=O)(=O)O)c(N)c3c2C(=O)c2ccccc2C3=O)cc1 [drawing 59],12 µM,–,–,–,–,–,–,–,–,–,–,–,–,–,–
Nc1c(S(=O)(=O)O)cc(Nc2cccc(S(N)(=O)=O)c2)c2c1C(=O)c1ccccc1C2=O [drawing 58],58 µM,–,–,–,–,–,–,–,–,–,–,–,–,–,–
LCSKAYLLLGQTC [Compound 2F],–,−2.0 ± 9.5%,6.0 ± 5.1%,2.4 ± 3.9%,2.4 ± 3.5%,23.6 ± 46.0%,−4.5 ± 6.2%,−1.5 ± 3.6%,2.1 ± 5.5%,8.5 ± 5.2%,32.6 ± 26.3%,0.1 ± 6.5%,0.6 ± 2.5%,27.6 ± 19.1%,–
SCEKRLGVRSCT (phage-displayed) [Compound C5],–,73.8 ± 16.6%,47.8 ± 18.9%,76.5 ± 6.7%,45.7 ± 5.2%,58.7 ± 14.4%,5.6 ± 5.3%,3.2 ± 3.7%,28.5 ± 5.2%,97.2 ± 14.2%,39.0 ± 3.8%,16.7 ± 4.8%,56.3 ± 4.1%,33.5 ± 7.2%,–
Nc1c(S(=O)(=O)O)cc(Nc2cccc(S(N)(=O)=O)c2)c2c1C(=O)c1ccccc1C2=O [drawing 62],–,–,–,–,–,–,–,–,–,–,–,–,–,–,10 µM
SCARFFGTPGCT [Compound C8],–,4.0 ± 6.2%,23.6 ± 8.5%,20.8 ± 11.1%,124.9 ± 29.1%,51.6 ± 13.2%,14.2 ± 9.8%,0.7 ± 2.4%,24.7 ± 12.5%,122.6 ± 26.2%,−0.8 ± 2.7%,17.5 ± 7.8%,60.8 ± 14.4%,74.8 ± 14.8%,–
Nc1ccc(Nc2cc(S(=O)(=O)O)c(N)c3c2C(=O)c2ccccc2C3=O)cc1 [drawing 63],–,–,–,–,–,–,–,–,–,–,–,–,–,–,2.5 µM
